B1: BTBD1 (parent)
chain: YGSIHGPTDYQVNIQIIEYEKKQT
B2: KLHL20 (parent)
chain: YQDMIYAVGGRDDTTELSSAERYN

Variants of: B1
Assay: protein stability index of a GFP-peptide fusion (GPS, HEK-293T) (PSI 1-6); higher = more stable
Conditions: c terminus: a fixed tail appended
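Also: lentivirally expressed fusions sorted by FACS into six bins by GFP to DsRed ratio, PSI derived from sequencing read proportions per bin multiplied by bin number.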

| Variant | protein stability index |
| --- | --- |
| Y10N | 4.48 |
| S3N | 1.6 |
| S3D | 3.13 |
| S3C | 2.06 |
| S3G | 2.88 |
| S3I | 2.24 |
| S3T | 3.08 |
| S3R | 2.88 |
| S3M | 2.87 |
| S3P | 3.06 |
| S3F | 2.64 |
| S3H | 3.09 |
| S3K | 3.17 |
| S3W | 2.17 |
| S3Y | 2.15 |
| S3L | 2.94 |
| S3A | 2.85 |
| S3V | 2.57 |
| S3Q | 3.33 |
| S3E | 3 |
| I14H | 3.48 |
| I14E | 3.46 |
| I14N | 3.98 |
| I14S | 3.08 |

| Variant | protein stability index |
| --- | --- |
| I14W | 2.76 |
| I14Q | 3.74 |
| I14M | 3.37 |
| I14K | 3.75 |
| I14Y | 3.35 |
| I14V | 3.16 |
| I14G | 3.32 |
| I14A | 3.47 |
| I14C | 3.3 |
| I14P | 3.77 |
| I14R | 3.53 |
| I14T | 3.58 |
| I14F | 2.92 |
| I14L | 3.36 |
| I14D | 3.75 |
| I17E | 3.69 |
| I17D | 3.63 |
| I17H | 3.22 |
| I17F | 2.46 |
| I17C | 2.62 |
| I17A | 3.32 |
| I17G | 3.31 |
| Y1W | 2.67 |
| Y1P | 3.67 |

| Variant | protein stability index |
| --- | --- |
| Y1E | 3.93 |
| Y1S | 3.79 |
| Y1F | 2.52 |
| Y1R | 3.44 |
| Y1M | 3.73 |
| Y1Q | 3.8 |
| Y1I | 2.92 |
| Y1G | 3.66 |
| Y1N | 3.32 |
| Y1A | 3.35 |
| Y1C | 3.4 |
| Y1T | 3.83 |
| Y1K | 3.15 |
| Y1V | 3.84 |
| Y1D | 3.93 |
| Y1L | 2.94 |
| Y1H | 3.45 |
| G6I | 2.17 |
| G6N | 3.4 |
| G6F | 1.63 |
| G6P | 3.18 |
| G6H | 3 |
| G6R | 2.88 |
| G6V | 2.21 |

| Variant | protein stability index |
| --- | --- |
| G6E | 3.54 |
| G6M | 2.85 |
| G6L | 2.6 |
| G6D | 3.61 |
| G6A | 2.96 |
| G6Y | 2.44 |
| G6Q | 3.26 |
| G6W | 2.71 |
| G6C | 2.81 |
| G6K | 3 |
| G6T | 3.19 |
| G6S | 3.15 |
| I16M | 3.32 |
| I16Q | 3.9 |
| I16F | 2.51 |
| I16A | 3.8 |
| I16P | 2.9 |
| I16V | 3.15 |
| I16E | 3.81 |
| I16K | 3.97 |
| I16S | 3.58 |
| I16L | 2.74 |
| I16N | 3.55 |
| I16H | 3.91 |

| Variant | protein stability index |
| --- | --- |
| I16R | 3.46 |
| I16G | 3.31 |
| I16Y | 2.71 |
| I16C | 2.96 |
| I16T | 3.58 |
| I16W | 2.48 |
| I16D | 3.61 |
| T8F | 2.17 |
| T8G | 2.44 |
| T8V | 2.06 |
| T8S | 3.11 |
| T8Y | 2.56 |
| T8P | 2.97 |
| T8A | 2.71 |
| T8L | 1.91 |
| T8W | 3.36 |
| T8D | 3.66 |
| T8M | 1.74 |
| T8Q | 3.08 |
| T8K | 2.16 |
| T8I | 2.06 |
| T8N | 2.94 |
| T8R | 2.57 |
| T8C | 2.25 |

| Variant | protein stability index |
| --- | --- |
| T8E | 2.88 |
| T8H | 2.38 |
| I4P | 3.1 |
| I4V | 2.63 |
| I4T | 2.81 |
| I4K | 2.24 |
| I4S | 2.45 |
| I4Y | 2.94 |
| I4L | 2.94 |
| I4C | 2.32 |
| I4N | 2.93 |
| I4F | 2.21 |
| I4G | 2.16 |
| I4R | 1.93 |
| I4D | 4.08 |
| I4M | 2.41 |
| I4Q | 3.06 |
| I4H | 2.79 |
| I4A | 2.95 |
| I4W | 2.5 |
| I4E | 3.45 |

Variants of: B2
Assay: as above
Conditions: c terminus: a fixed tail appended

| Variant | protein stability index |
| --- | --- |
| N24R | 2.7 |
| N24Y | 2.31 |
| N24V | 1.75 |
| N24C | 2.02 |
| N24Q | 2.48 |
| N24I | 2.02 |
| N24P | 2.42 |
| N24S | 2.24 |
| N24G | 2.99 |
| N24F | 2.41 |
| N24T | 1.85 |
| N24M | 2.08 |
| N24L | 2.69 |
| N24W | 1.93 |
| N24H | 2.44 |
| N24D | 3.62 |
| N24K | 2.16 |
| N24E | 2.66 |
| N24A | 1.75 |
| Y23R | 2.77 |
| Y23Q | 3.05 |
| Y23T | 2.37 |
| Y23P | 2.72 |
| Y23S | 2.54 |
| Y23W | 3 |
| Y23V | 2.93 |
